The target of test [1] is FITC-casein. Description: fluorescence polarisation; fluorescence anisotropy; ClpB E279Q/E678Q titrated into 100-nM FITC-casein with 5-mM ATP, without DBeQ; fit of a binding isotherm with a Hill number.
Test [2] addresses FITC-casein. Description: fluorescence polarisation; fluorescence anisotropy; ClpB E279Q/E678Q titrated into 100-nM FITC-casein with 5-mM ATP and 80-μM DBeQ; fit of a binding isotherm with a Hill number. In general terms: Polarisation of emitted light reports the rotation of a fluorescent probe.

Take “ClpB E279Q/E678Q (from UniProt P63284 1-857) (enzyme)”: the results for the Kd in the test with FITC-casein [1] and with FITC-casein [2] were 0.0773 µM and 0.0785 µM, respectively.

One may read the Kd as the concentration at which binding is half-saturated.

(Values after paper PMC7948422, “Repurposing p97 inhibitors for chemical modulation of the bacterial ClpB–DnaK bichaperone system” (The Journal of Biological Chemistry, 2020).)
